# Measured values published in a protein production outcome set (Wang et al. 2014).
# Assay: label from the status in PepcDB records
row,Sequence,protein production
1,MAKLTTDSPLCRKIVRSFLNFLDSVEVAPGVDEEGLEVARECLREAFKLNSDSSRDDDDDSFKPISLVNLFTSLDNNETIPPPPPPPVAATTQDPSSSGSHVSVDTCKEPSFTGTSRDELFGQLFGALEKVRYFRNTPDGDDDPAQLEKATRIFHDCVNEMEKSGCQTFDVNSLAETLKCQGNKAMQSNLYLEAVELYSFAIALTDKNAVFYCNRAAAYTQINMCSEAIKDCLKSIEIDPNYSKAYSRLGLAYYAQGKYAEAIEKGFKKALLLDPHNESVKENIRVAEQKIREEQQRQRRSQQNTSTFYTQEPEMGGGQGIPSQFSMPVNPDLMSMFMNMAGNTFPGNHSRNNEGGAGGDGTRNGADEPEIHVGGNINIDLGGTEQMPEDLSGALRSMMQMFGGSMGGTGNNNPQDSNGAQGRPSGN,failed
2,MAKRFMCETLGTACLGLSMALAAPAAFALADIIETPARPTELAPQSLLTDATRAGDRIVSVGERGHVIYSDDQGQSWTQAEVPVAVTLTAVDFGTEQHGWVVGHSGVVLHSSDSGETWELQLDGIQAAELVIASKEDQIAELEERIEQAPEEEKADLEWALDDLFFALENTQADMEIGPVNPFLDVWFEDENHGFVVGAYGMILRTQDGGQTWEDWAPKLDNPTNFHYNSIAEVAGGALVVVGEAGQIHVSVDGGESWEKRESPYDGSLFGVTGTGRVNEVLAFGLRGNTLLSTDLGRSWTMVPNEGGATLNNAAVAEDGRITLVGNGGAVLMSTNNGESFRPYFRNDREGVMGVVPLPGTNLLLVGEGGVEITDARGRNLN,failed
3,MAKTDARSPRTERGTIALQDASQDIWDKKYRLKSKDGTPVDASVDGTWQRVARALADVEDKASREHWYGRFLWALRNGAIPAGRIISNAGALGHKPATSTINCTVSGTIQDSMDNILEKVHEAGLTLKAGCGIGYEFSTLRPRGAYVSGAGAYTSGPLSFMDIYDKMCFTVSSAGGRRGAQMGTFDVSHPDVREFIRAKREDGRLRQFNLSLLITDQFMQAVEQDADWPLVFPVHVKERDEIDLDDPNAVVWREWPIQDDYVQRADGLVACKVYGQVRARHLWDMIMVSTYDYAEPGFILIDRVNELNNNWWCEAIRATNPCGEQPLPPYGSCLLGSVNLTCFVEQPFGDEARFDWDRFREVVRVFTRMLDNVVEINGLPLEQQRQEILGKRRHGMGFLGLGSTLTLLKLRYGSPEACVFTEEVAREMALVGWEVALELAREKGPAPILAQDYEVTAEMLRKRPEMAADGYKAGDRIRGSVLHAKYSRYMQRVAEHAPELIEALAETGARFTHHSSIAPTGTISLSLANNASNGIEPSFAHHYSRNLIREGRKTKEKVEVYSYELLAYRTLVNAQALPDSDDPARRLPDYFITADSVTPAQHMDIQAAAQKWVDSSISKTANVPTDYPFEDFKDIYRYAWHQGLKGCTTFRFNPEAFQGVLVKESDLEKTRYRFELEDGSVVEFKGNEQVEYDGEIHTAANLFDALKEGYYGK,failed
4,MAKYQSMLVVIDPNQDDQPALRRAVYLHQRIGGRIKAFLPIYDFSYEMTTLLSPDERTAMRQGVIAQRTAWIREQAKFYLESGVPIDVKVVWHNRPFEAIIQEVVSEKHDLLLKMAHQHDKLEAVIFTPTDWHLLRKCPCPVWMVKDQPWPEGGKALVAVNLASEENYHNTLNEKLVRETLSLAEEVNHTEVHLIGAYPVTPINIAIELPDFDPSVYNDAIRGQHLLAMKALRQKFGIDEKFTHVEKGLPEEVIPDLAEHLQAGIVVLGTVGRTGLSAAFLGNTAEQVVDHLRCDLLVLKPEAYQTPVELDDDDDD,failed
5,MALELSRLPELLSRIDGYKGQPVTRLAVMLNLLVFIRSSELRYARWSEIDIDNSMWTIPAEREPLPGVKFSHRGSKMRTPHLVPLSKQVVAILAELQTWAGENGLIFTGAHDPRKPISENTVNKALRVMGYDTTQEVCGHGFRAMACSALIESGLWSRDAVERQMSHQERNGVRAAYIHKAEHLEERRLMLQWWADFLDANREKGISPFEYAKINNPLKLEHHHHHH,not failed
6,MALFKRSSASAKGFDWMGLLWLFLFFWYFSGITQLLIQLTDTSGFTGFRQAFFMSAIWLAPMLLFPARTKVMAAVIGVVLWACSMASLGYFFVYQQEFSQSVIFIMFESNPSEAGEYLTQYFAWWMLLAFLAHSAFAFFLWTRLRPVYLPRGQALVAATAILVAIVGYPLVKQISRADTLAAGLEKFETRIEPAVPWQMVIAYRRYREQLDGMQGMLASASKIAPLTNLKDSMANQPATLVLVIGESTNRQRMSLYGYPRQTTPELDKLKDQLAIFNNVITPRPYTIEALQQVLTFADEENPDLYLKSPSLVSVMKQAGYKTYWITNQQTMTKRNTMLTTFSEQADEQVYLNNNRNQNARQYDGDVLEPFSKALADSAPRKFIVVHLLGTHMSYQYRYPPSFDKFNDRQGVPAGVRDDQLPTYNSYDNAVLYNDFVVSNLIKNYAKTDPNGFLLYLSDHGEDVFDSAGHDTLGRNEARPTAPMYTIPFMAWASPKWRETHDWSFASDLSRPYMSSQLIHTWADLAGLSFDELDHSRSLVSDSFKPRPLLIGDPYSRQSKPLIDFSLMKPKAPVEATVVQK,failed
7,MALINLNHTDDGYDAYDACPARSVQQETAVGAGAQILLLALLGTAIGMGTAGWLTGLAFAFASWAVLSRALHRSRLPSFGPANRVTLGRATLVGGVTALVADSFRSAPPLSLLVGLTAVALILDGVDGRVARRTGTSTPLGARFDMEVDAFLILVLSVYVALDLGPWVLLIGGMRYVFVAAARVWPWLTAPLPPSTARKTVAALQGVLLLLAGAELLPRPGNAGVVAVALGLLVWSFGRDVRWLWRRSRVPAAPVTAVRELVAQ,failed
8,MALLKWIPARGTLPLSPKWVATTLADASPDSVPVLFLHGTLGSPGNFERPAQRLAQLGRPFFAPAYGEHGTADLDRSTAELLRYVDHLRDMGIKQVDIVGHSAGGLQGLRIAHARPGFVRKLIGLGAAFRGVPRTVRFKPVVKLITGQAVIQLTQEIPAELPDGVELVSIYSTADHIVPVASSTLGELIEITDIRHEDLPRQADVIMEALGYPAETDSPTD,failed
9,MALPLSQLPQEIIREVRGRKGLAFLAFVIVSFAVLGAGFVWPYKYQSETIIFVDDRNIIAPLMEGRAVATEINDRTSAAKELLMSRSLIEKVALDPEIYPDAPSDPAALEYRIANIRSGLSVRPRGDSYFSIGFSSTSQMEAFRVAQKLGQVFIEETKDRKRAESRNAYDFIDKQVKSYEQQLAQAENRLKEFLSENTDGTEQEANARMAQLRNQLELAELEKKELETRAASLQSQLGGIRPTITQGRTEDAYRERIRILEERLDSLRLQYHDTYPDIVILREQLAELRKQRDQAAERPTDVSSLEGEEAVNPLYQELRANLSTTRADMATVDTRITSLSRLLEQQAKRMERIQANKAQYSELTRDMEVNREIYDDLLKRREKARVSMHLDIEGQGLNYRINETAQFPRTPSGPQFSMFAAAGLFLGLAAPFGAVAGLLQVDPRIRARKQLEEDIGLPVLVEIPEVRTPYEKRRDRKVTLLIGIFAVLTVTVYVTIVVLAQMGVI,failed
10,MALPLVSSVSYIKSSNQFHCSFSLRKEKFELSSFFIVLCSHFSYVDTAERLELDRLLLWSSHQKIRFSKRTFSQRIVVKMSASTLPMNLGKAKKVWIWTMCKEVMTVAVERGWNTFIFSSDNRKLSNEWSSIALMDTLFIEEKKVIDGTGNVVASVFEVSTPEELRSLNIENEQIENIVLDFLDWKSIPAENLVAALQGSEKTVFAVSNTPSEAKLFLEALEHGLGGIILKSEDVKAVLDLKEYFDKRNEESDTLSLTEATITRVQMVGMGDRVCVDLCSLMRPGEGLLVGSFARGLFLVHSECLESNYIESRPFRVNAGPVHAYVAVPGGKTCYLSELRTGREVIVVDQKGKQRTAVVGRVKIEKRPLIVVEAKLSTKEEETVYSIILQNAETVALVTPHQVNSSGRTAVPVTSLKPGDQVLIRLQGGARHTGIEIQEFIVEN,failed
11,MALPPYDPNFTLAFSYGRRDNVFENDPEHDESASAAIVAVELISSARLALKLDSVRTEYSAQYLVDKAGSRNLRRRRKLTVKDCLNFALKKGGIPRAEDWPPLGSESKTPSSYEPALVSMKGEVIEPKDMDEVPELLVHQSAVGAKLHVFTPHIELQQDVSAIAYARYVGLRDGIVVGTEKIQGKSMAIVKVWYKKKFVVVKVALSRMFYLAGVGPSVLLVDFCVPRLSID,failed
12,MALSGGDDQVPPGGPMTVSTRLIDAGSTIMQRRLPVKQMNTHVSTFAIYGGDMSRLIGTHHYVHRVNDEFLQCAVYASDRSDAPLIGIEYVISDRLYETLSEDEQKLWHSHAYEVKSGSWAYPRLPEVVAAPELKNIAKTYGKFWCTWQIDRGDKLPMGAPELMMSPQGVGQGVLRPELVKRRDEKYNISTDDLKHTRAEIAEPEWINPMADYWKQHGKCFVLDIATVEMNRHAQFP,failed
13,MAMKIPKSGYNRFMKEGAQHFKGTDEAVQRNIEACTELASQIRSAYGPNGMNKMVINHIEKLFVTNDAATILKELEIQHPAARIIIMATEMQEKQIGDNTNTVVILAAALLEHAANLIHMGMTPQEVAAGYEQAAEKALEILPTLVVKEATDMKNIEEVRQYIRSAITSKQYDNEDIIADLVAKACVTTCPANSFNFNVDNIRICKIIGSGVHTSTVMNGMVFKRGAEGEIREARDARIAVYTCPFDLTQTETKGTVLIENADELRNFSKGEEAEVEEQVKAIADNARSSILAKFWLMNFSKGEEAEVEEQQVKAIADNGVKVVVAAGKFGDMYLHFLNKYKIMAVRLTSKFDLRRLCRTVGAQPQARICAPAVNLLGHCDSVAVQEIGDENVVVFDKKSETGKVATIIIRGSSQSRIDDVERAVDDAVNTYKALTKDGKLLAGAGAVEIELAKEIESFGAKAPGLEQYAIKKFAHALETLPKAIAENAGMPTTETLTKLYAEHVAGKKNAGIDIWKRETMDAVVNNIFDLYAGKRLAIKLATDAASTILKVDQIIMSKQATGGPKPRGPKAQDEDDDGMA,failed
14,MAMNGTITTWFKDKGFGFIKDENGDNRYFHVIKVANPDLIKKDAAVTFEPTTNNKGLSAYAVKVVPESKYIYIAGERLKLTSIKSYLVYSEEVPADTRIDKENTVLSVGVLMNSIRPKSVAEPDEIRSLKKLAITTFQGTTLIFSEDEIDVDATVKLLKVLEHHHHHH,not failed
15,MAMNLPADNEGKIKLAMSILVTIINDTGVPRNIRRAAANALTHLRDPRLSPAVRAANAISALEEVSQDPNMPFYARTRIWQVITILETVRD,failed
16,MAMPAHMTLTGEKQGKIDGSCELQGRENTIQLYEMKHDIHMPRNPHDGLPTGKRVHGPLSIVKMFDKSSPKLYQALCTGEHMKNVQIKWYRINKQGLEEHYFTTTLEDAIVVEMKPYMPMTLLPANEPYGHMEEVAFSYKKIKWTWEPNGIEAEDSWSVPK,failed
17,MAMSFSGAVLTGMASSFHSGAKQSSFGAVRVGQKTQFVVVSQRKKSLIYAAKGDGNILDDLNEATKKASDFVTDKTKEALADGEKAKDYVVEKNSETADTLGKEAEKAAAYVEEKGKEAANKAAEFAEGKAGEAKDATK,failed
18,MAMVSGRRSTLNPDAPLFIPAAVRQVEDFSPEWWQLVTTSTWYPDYWISQQQQGADGFYDNGENENGGGHIDVADLLPESFDFDDMEDFFDTDAAEFDQGFDGRMYYQAPSEFGFGKNGEMVKKSSGNRSPRSIVEPAKYAEKPAKWGNQRVAAAPRNIHQPR,failed
19,MANAIRLPPEAYPMSIAAQKNDDDRQARALAALAEKPDGIVEAIAAKAEVAPAEILAILPQGAAVSAPADRFDAIWNEMRGWGEILMIVQTGDIVLEVPGHLPEGTESHGWFNIHGDSPIGGHIKKDNCAAITFVDRGFHGRRSCSVWFMNAAGGAMFKIFVRRDENKELLAGQLAKFEELRDGFRGLEHHHHHH,not failed
20,MANATFSADKLKQLTLQITKLARVAGDFQINELKNFERSNIEHKGRSNDLVSYVDKETEKLLIESLTKLVPEAGFETEEGTVEQTQSGLRWIIDPLDGTTNFLHKLPLFSISIALVQDETLLIGVVHEPSRNECFYAWKNGGAYMNGERIETSSITEISDALIATGFPYSLRGKSDQYFTLIRHFVETTHGVRRLGSAAIDLCYVACGRFEAYFEFNLKPWDVAAGILIVREAGGIVSNYSGGDDHCQTAEEVCAAGRHIHPLMIDTFKKIW,failed
